Data as given in the nanobody polyreactivity screen of Harvey et al. (2022).

Experiment: yeast display, Sf9 membrane polyspecificity reagent, FACS + sequencing; frameworks hold sequencing errors
Outline: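 In a synthetic yeast display library (Saccharomyces cerevisiae BJ5465), nanobody expression was induced with galactose for 36–48 hours. FACS gates were set low and high (top ~1%) using anti-HA fluorescence for expression and streptavidin fluorescence for binding of the Sf9 membrane reagent. Each polyreactivity label is drawn from the gate of origin.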

For “QVQLVESGGGLVQAGGSLRLICAASGVTFWSDAMGWYRQAPGKEREFVAAITTSAGRTNYADSVKGRFTISRDNAQNTVYLKMNSLKPEDTAVYYCAARSAYTGLGSGFDYWGQGTQVSVSS”, the “polyreactivity (PSR sort gate)” value was “low polyreactivity”.
For “QVQLVESGGGLDQAGGSLRLSCAAYGVPSLTMNMGWYRQAPGKERELFATIYSGGSTYYADSVKWRFTISRDNAKNTVYLQMNRLKPEDTAVYYCAARQSYYYSRSYIRGDYWGQGTQVTVSS”, the “polyreactivity (PSR sort gate)” value was “high polyreactivity”.
With “QVQLVESGGGLVQAGGSLRLSCAASGTFGVYAMGWYRQSPGKERELVAVITDSGGTNYADSVKGRFTISRDNAKNTVYLQMNSLKPEDTAVYYCNTDAGDYYGENYWGQGTQVTVSS” the “polyreactivity (PSR sort gate)” value was “low polyreactivity”.
With “QVQLVESVGGLVQAGGSLRLSCAASGFIYGWNAMGWYRQAPVKERELVASIRSSGGTTYADSVKGRFTISRDNAKNTVYLQMNSLKAEDNAVYYCARRVLGLLELDYWGQGTQVTVSS” the “polyreactivity (PSR sort gate)” value was “low polyreactivity”.
With “QVQLVESGGGLVQAGGSLRLSCAASGLTFVPNAMGWYRQAPGKERELVAAISNNGGRTYYADSVKGRFTISRDNAKNTVYLQMNSLKPEDTAVYYCAKYLSPGERHSYDYWGQGTQVTVSS” the “polyreactivity (PSR sort gate)” value was “high polyreactivity”.
With “QVQLVDSGGGLVQAGGILRLSCASSGITFPGYDMGWYRQAPGKERDLVARISRSGGSTYYADSVKGRFTISRDNAKNTVYLQMNSLKPEETAVYYCAAGAYRSGGYRFDYWGQGTQVTVSS” the “polyreactivity (PSR sort gate)” value was “low polyreactivity”.
For “QVQLVESGGGLVQAGGSLRLSCAASGSTFYYYAMGWYRQAPGKESELVAAISPSGDSTYNADSVKGRFTISRENSKNTVYLQMNSLKPEDTAVYYFAAQYYFYPQEFDDWGQGTQVTVSS”, the “polyreactivity (PSR sort gate)” value was “low polyreactivity”.
In the case of “QVQLVESGGGLVQAGGSLRLSCAASGRIFASYAMGWYRQAPGKERELVAAISLSGGSTYYADSVKGRFTISRDIAKNTVYLQMNSLKPEDTAVYYCAAKNYRRYRDYYWGQGTQVTVSS”, the “polyreactivity (PSR sort gate)” value is reported as “high polyreactivity”.
With “QVQLVESGGGLVQAGGSLRLSCAASGFIFAIYAMGWYRQAPGKERELVAAINSDGSTYYADSVKGRFTISRDNAKNTVYLQMNSLKPEDTAVYYCNAETAGHDMDYWGQGTQVTVSS” the “polyreactivity (PSR sort gate)” value was “low polyreactivity”.
With “QVQHVESGGGLVQAGGSLRLSCAASGRIFGVYVMGWYRQAPGKERELVAAITGGGSTYYADSVKGRFTISRDNAKNTVYLQMNSLKPEDTAVYYCAARYLVTYGHQQRYYYWGQGTQVTVSS” the “polyreactivity (PSR sort gate)” value was “high polyreactivity”.
In the case of “QVQLVESGGGLVQAGGSLRLSCAASGIILPYYVMGLYRQAPGKERELVAAISSGGRTYYADSVKGRFTISRDNAKNTVYLQMNSLKPEDTAVYYCNAYFTGKWYDYWGQGTQVTVSS”, the “polyreactivity (PSR sort gate)” value is reported as “high polyreactivity”.
For “QFQLVESGGGLVQAGGSLRLSCAASGRIFYKYVMGWYRQAPGKERELVAAINRSGGTTYYADSVKGRFTISRDNAKNTVYLQMNSLKPEDTAVYYCNATLPDYWPYYYYQGGDDYWGQGTQVTVSS”, the “polyreactivity (PSR sort gate)” value was “low polyreactivity”.
For “QVQLVESRGGLVQAGGSLRLSYAASGITFRKYAIGWYRQAPGKESELVAAISWSGGSTYYADSVKGGFTISRDNAMNTVYLQMNSMKPEDTAVYYCAAPHWSPYDYWGQGTQVTVSS”, the “polyreactivity (PSR sort gate)” value was “high polyreactivity”.
In the case of “QVQLVESGGGLVQAGCSLRLSCAASGFIFIRYAKGWYRQAPGQESELVASISSGGSTYYADSVKGRFTISRDNAKNTVYLQMNSLKPEDTAVYYCAAVFSKGLEGDYWGQGTQVTVSS”, the “polyreactivity (PSR sort gate)” value is reported as “high polyreactivity”.
With “QVQLVESGGGLVQAGGSHRLSCAASARIFYLYAMGWYRQAPGKERELVAAISRSGSSTYYADSVKGRFTISRDNPKNTVYLEMNSLKPEDTAVYYFADLRYRPVHQDHYDYWGQGTQVTVSS” the “polyreactivity (PSR sort gate)” value was “high polyreactivity”.
In the case of “QVQHVESGGGLVQAGGSLRLSCAASGRIIYRYAMGWYRQATGKERELVATITWSTTSTYYADSVKGRFTISREYAKNTVYLQMNSLKPVDTAVYYCAASIIPGFRRDPFGYWGQGTQVTVSS”, the “polyreactivity (PSR sort gate)” value is reported as “low polyreactivity”.
With “QVQIEESGGGLVQAGGSLRLSCAASGRIFARNALGWYRQSPGTEREFVAAITHSGGNTYYADSVKGRFTISRDNAKNSVYLQMNSLKPEDTAVYYCAKDYRSTKYDYWGQGTQVTVSS” the “polyreactivity (PSR sort gate)” value was “low polyreactivity”.
In the case of “QVQLVESGGGLVQAGGSLRLSCADSGSTFSPDAMGWYIQAPGKERALVAAIRYSGTSTYYADSVKGRFTISRDNAKKTVYLQMNSLKPEDTAVYYCNTVFKYQGVRPYGYWGQGTQVTVSS”, the “polyreactivity (PSR sort gate)” value is reported as “high polyreactivity”.
For “QVQLVESVGGLVQAGGSLRLSCAASGRIFGYNDMGWYRQEPGKERELVAVISTSGTITYYADSVKGRFTISRDNAKNTVYLQMNSLKPEDTAVYNCAAGSYSRYLYSLYFDFDYWGQGTQVTVSS”, the “polyreactivity (PSR sort gate)” value was “low polyreactivity”.
In the case of “QDQLVESGGGLVQAGGSLRLSCAASGFTFYPYAMGWYRQAAGKERELVASITNGGSTNYADSVKGRFTISRDNAKNTVYLQMNSLKPEDTAVYYCNAAYGFYASRYWYASYDYWGQGTQVTVSS”, the “polyreactivity (PSR sort gate)” value is reported as “low polyreactivity”.
With “QVQIEESGGGLVQAGGSLRLICAASGIIIMDYDMGWSRQAPGKERELVAAISRSGGSTYYADSVKGRFKISRDNAKNSVYLQMNSLKPEDTAVYYCNADNVDYPSAPLNPGKGIYYWGQGTQVTVSS” the “polyreactivity (PSR sort gate)” value was “low polyreactivity”.
For “QVQLVESGGGLVQAGGSLRLSCAASGLTFVANAMGWYRQAPGKERELVAAISRRGTRTYYADSVKGRFTISRDNAKNTVYLQMNSLKPEDTAVYYCAAEYNSEYDYWGQGTQVTVSS”, the “polyreactivity (PSR sort gate)” value was “high polyreactivity”.
In the case of “QVQLVESGGGLVQAGGSLRLSCAATGRTFEGYAMGWYRQAPGKERELVAAISNSGGSTYYADSVKGRFTISRDNAKNTVYLQMNSLKPEDTAVYDCAALSRIRRYGYWGQGTQVNVSS”, the “polyreactivity (PSR sort gate)” value is reported as “high polyreactivity”.
For “QVQLVESGGGLVQAGGSLRLSCAASGYTFRYYVMGWYIQAPGQERELVATISRGGRTNYADSVKGRFTISRDNAKNTVYLQMNSLKPEDTAVYYCNARTLYAYITRDYWGQGTQVTVSS”, the “polyreactivity (PSR sort gate)” value was “high polyreactivity”.
In the case of “QVQLVESGGGLVQAGGSLRLSCAASGSTFQIYAMGWYRQAPGKETELVAAITSSSSTNYADSVKGRFTISRDNAKNTVYLQMNSLKPEDTAVYYCAADVSWRSNWYDYWGQGTQGTVSS”, the “polyreactivity (PSR sort gate)” value is reported as “low polyreactivity”.
In the case of “QVQLVESGGGLVQAGGSLRLSCAASGRTFKRYAMGWYRQAPGKERELVAAITRSGGSTYYADSVKGRFTISRDNAKNTVYLQMNSLKPEDTAVYYCATRSYNNELEYWGQGTQVTVSS”, the “polyreactivity (PSR sort gate)” value is reported as “high polyreactivity”.
In the case of “QVQLVESGGGLVQAGGSLRLSCAASGRTFAGYAMGWYRQAPGKERELVATISRNGGSTYYADSVKGRFTISRDNAKNTVYLQMNSLKPEDTAVYYCAADRRGVVRFSRYRGIYDYWGQGTQVTVSS”, the “polyreactivity (PSR sort gate)” value is reported as “high polyreactivity”.
In the case of “QVQRVESGGGLVQAGGSLRLSCAASGNNVMGWYRQAPGKERELVAAISWSGTSTYADSVKGRFTISRDNAKNTVYIQMNSLKPEDTAVYYCAAEQQGRKYRASRRYDYWGQGTQVTVSS”, the “polyreactivity (PSR sort gate)” value is reported as “low polyreactivity”.
For “QVQLQESGRRPGAAGGSPRMSCAASGNIFWVAVMGRYRQAPGKERELVASIGFGCTTYYADSVKCRFTISRDNAKNTVYRQMISLKPEDTAVYYCAAPHYDWGELDYWGQGTQVPVSS”, the “polyreactivity (PSR sort gate)” value was “low polyreactivity”.
In the case of “QVQLVESGGGLVQAGGSLRLSCAASGSIFYIYAMGWYRQAPGKERELVAAISWSGSSTYYADSVKGRFTISRDNAKHTVYLQMNSLKPEDTAVYYCAADTGYGVRYYYWGQGTQVTVSS”, the “polyreactivity (PSR sort gate)” value is reported as “high polyreactivity”.
For “QVQLVESGGGLVQEGGSLRLSCAASGLIFGAYALGWYRQAPGKERELVAAISGRGGSTYYADSVKGRFTISHDNAKNTVYLQMNSLKPEDNAVYYCAAPWRYTYYYWGQGTQVTVSS”, the “polyreactivity (PSR sort gate)” value was “high polyreactivity”.
In the case of “QVQLVESGGGLVQAGGSLRLSCAASGLISESYAMGWYRQAPGKERELVAAISSGGSTYYADSVKGRFTISRDNAKNTVYLQMNSLKPEDTAVYYCNATGYKYNYGHAYYYAVDYWGQGTQVTVSS”, the “polyreactivity (PSR sort gate)” value is reported as “low polyreactivity”.
In the case of “QVQLVESGGGLVQAGCSLRLSCAASGGTFSLNAMGCYRQAPGKERELVAAITWTGDRTYYADSVKGRFTISRDNAKNTVYLQMNSLKPEDTAVYYCAAVGGYYPGDYWGQGTQVTVSS”, the “polyreactivity (PSR sort gate)” value is reported as “low polyreactivity”.
For “QVQLVESGGGLVQAGGCLRLSCAASGFTLRYNAMGWSRQAPGKERELVAAITTGGRTNYADSVKGRFTISRDNAKKTVYLQMNSLKPEDTAVYNCNKVFRSFDYWGQGTQVTVSS”, the “polyreactivity (PSR sort gate)” value was “high polyreactivity”.
In the case of “QVQLVESGGGIVQAGGSLRLSCAASGRTFPGYAMGWSRQAPGKERELVATITFSDGSTYYADSVKGRFTISRDNAKNTVYLQMNSLKPEDTAVYYCNARRSYFLRYGVNYWGQGTQVTVSS”, the “polyreactivity (PSR sort gate)” value is reported as “low polyreactivity”.
In the case of “QVQLVESGGGLVQAGGSLRLSCAASGRISLYYTMGWYRQAPGKEREFVAAISSTGGSTYYADSVKGRFTISRDNAKNTVYLQMNSLKPEDTAVYYCAKAYHATSDYWGQGTQVTVSS”, the “polyreactivity (PSR sort gate)” value is reported as “low polyreactivity”.
With “QVQLVESGGGLVQAGGSLRLSCAASGFTFGYYTMGWYRQAPGKERELVAAISSSGGRTYYADSVKGRFTISRDNAKNTVYLQMNSLKPEDTAVYYCAARARWAGLRYTRYYYWGQGTQVTVSS” the “polyreactivity (PSR sort gate)” value was “high polyreactivity”.
In the case of “QVQLVVSGGGLVQAGGSLRLSCAASGSTLVIYAMGGYRQAPGKERELVAAIRRTGGSTYYADSVKGRFTISRDNAKTTVDLQKNSLKPEDTAVYYCAKRSYTGYEYWGQGTQETVSS”, the “polyreactivity (PSR sort gate)” value is reported as “low polyreactivity”.
For “QVQLVESGGGLVQAGGSLRLSCAASGLIFKTYTMGWYRQAPGKEREFVAAITTSGGSTYYADSVKGRFTISRDNAKNTVYLQMNSLKPEDTAVYYCAAVWWKSFQGSSYRMNYWGQGTQVTVSS”, the “polyreactivity (PSR sort gate)” value was “high polyreactivity”.
For “QVQLVESGGGLVQAGGSLRLSCAASGRIFAPYAMGWYRQAPGKEREFVATITHSGGRTYYADSVKGRFTISRDNAKNNVYLQMNSLKPEHTAVYYCAAGYGYNRLYYGVDYWGQGTQVTVSS”, the “polyreactivity (PSR sort gate)” value was “low polyreactivity”.
With “QVQLVESGGGLVQAGGSLRLSCAASGSIFWVYAMGWYRQAPGKERELVADISRSGGSTYYADSVKGRFTISRDNAKNTVYLQMNSLKPEDTAVYYCAAEYYGQVLFQPYVYQLMYYWGQGTQVTVSS” the “polyreactivity (PSR sort gate)” value was “low polyreactivity”.
In the case of “QVQLVESCGGLVQAGGSLRLSCAASGLTLGDNAMGLYRQAPGKERELVAAITSGSSTDYADSVKGRFTISRDNAKNTVYLQMNSLKPEDTAVYYCAKRIYRYQYRPENYWGQGTQVTVSS”, the “polyreactivity (PSR sort gate)” value is reported as “low polyreactivity”.
For “QVQLVESGGGLVQAGGSLRLSCAASGSTLFGYAMGWYRQAPGKEREFVAAISRSGGRTYYADSVKGRFTISRDNAKNTVYLQMNSLKPEDTAVYYCATVRRRLSLTYDYWGQGTQVTVSS”, the “polyreactivity (PSR sort gate)” value was “high polyreactivity”.
